From patent publication US20100068208A1, “Degranulation inhibitor” (priority 2005, published 2010)
Where no end group is shown, it is not given here.

T1: TGR12-GFP (fused protein of human TGR12 and GFP, encoded by the DNA of SEQ ID NO: 45), stably expressed on … (human, UniProt Q96LB1 1-330)
T1 construct: also called TGR12-GFP expression CHO cell line; not shown: GFP (Wako Pure Chemical) fused after the C-terminus of TGR12
T1 sequence: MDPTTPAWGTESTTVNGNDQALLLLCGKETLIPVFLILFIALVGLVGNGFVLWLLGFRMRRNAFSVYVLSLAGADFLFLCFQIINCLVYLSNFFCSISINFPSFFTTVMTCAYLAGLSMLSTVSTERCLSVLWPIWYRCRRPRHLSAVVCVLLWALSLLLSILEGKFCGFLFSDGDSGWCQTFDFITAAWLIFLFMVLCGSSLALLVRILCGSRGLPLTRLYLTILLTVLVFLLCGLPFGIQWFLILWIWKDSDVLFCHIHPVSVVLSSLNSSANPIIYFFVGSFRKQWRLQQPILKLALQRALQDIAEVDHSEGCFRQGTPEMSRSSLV

T2: TGR12-GFP (fused protein of human TGR12 and GFP, encoded by the DNA of SEQ ID NO: 31), stably expressed on … (human, UniProt Q96LB1 1-330)
T2 sequence: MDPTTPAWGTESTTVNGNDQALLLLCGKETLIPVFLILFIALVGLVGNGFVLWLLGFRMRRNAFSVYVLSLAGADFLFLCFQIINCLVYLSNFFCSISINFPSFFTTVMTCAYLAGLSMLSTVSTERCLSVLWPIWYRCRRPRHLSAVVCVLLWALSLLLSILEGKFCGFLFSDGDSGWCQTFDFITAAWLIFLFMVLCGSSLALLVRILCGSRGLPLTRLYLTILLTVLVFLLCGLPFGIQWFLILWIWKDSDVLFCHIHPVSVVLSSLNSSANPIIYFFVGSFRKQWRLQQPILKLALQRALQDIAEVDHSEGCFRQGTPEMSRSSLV

T3: human TGR12 (untagged) (human, UniProt Q96LB1 1-330)
T3 sequence: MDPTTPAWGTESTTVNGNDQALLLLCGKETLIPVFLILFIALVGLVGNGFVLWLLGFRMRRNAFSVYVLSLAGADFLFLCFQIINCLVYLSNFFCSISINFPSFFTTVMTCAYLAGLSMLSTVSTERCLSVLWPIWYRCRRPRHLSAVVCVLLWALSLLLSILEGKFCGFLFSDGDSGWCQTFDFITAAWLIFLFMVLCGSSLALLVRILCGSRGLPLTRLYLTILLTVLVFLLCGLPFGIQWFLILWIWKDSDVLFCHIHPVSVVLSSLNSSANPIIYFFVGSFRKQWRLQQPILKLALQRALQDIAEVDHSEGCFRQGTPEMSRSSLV


Experiments:
[1] = molecular target: T1, TGR12-GFP (fused protein of human TGR12 …); assay: competition with 200 pM [125I]-rCST14 (Y0) on CHO-TGR12GFP cells, Hill plot
Description: The binding assay using CHO-TGR12GFP was performed as follows. […] After incubation overnight, the cells were washed 3 times with ice-chilled assay buffer (MEM-α, 20 mM HEPES (pH 7.4), 0.05% BSA) and 250 μL of the assay buffer was added thereto. […] After washing 3 times with 500 μL of the assay buffer, the cells were lysed in 250 μL of 0.5N NaOH and the lysate was recovered for measurement of the radioactivity.
Based on the above, non-specific binding was estimated as the activity of 10 μM rat cortistatin-14 and the IC₅₀ value of each peptide was obtained from Hill plot analysis.

[2] = molecular target: T2, TGR12-GFP (fused protein of human TGR12 …); assay: cell-based or functional assay
human TGR12 (untagged) = molecular target: T3, human TGR12 (untagged); assay: cell-based or functional assay

| IC50 [1] | EC50 in the calcium increasing effect on CHO-TGR12 [2] | maximum activity in the calcium increasing effect (FLIPR), CHO-TGR12, at 0.3 nM [2] | maximum activity in the calcium increasing effect (FLIPR), CHO-TGR12, at 3 nM [2] | maximum activity in the calcium increasing effect (FLIPR), CHO-TGR12, at 30 nM [2] | maximum activity in the calcium increasing effect (FLIPR), CHO-TGR12, at 300 nM [2] | maximum activity in the calcium increasing effect (FLIPR), CHO-TGR12, at 3000 nM [2] | EC50 in the degranulation on LAD 2 (human TGR12 (untagged)) | degranulation of LAD 2 (beta-hexosaminidase release, % of total) at 10 nM (human TGR12 (untagged)) | degranulation of LAD 2 (beta-hexosaminidase release, % of total) at 30 nM (human TGR12 (untagged)) | degranulation of LAD 2 (beta-hexosaminidase release, % of total) at 100 nM (human TGR12 (untagged)) | degranulation of LAD 2 (beta-hexosaminidase release, % of total) at 300 nM (human TGR12 (untagged)) | degranulation of LAD 2 (beta-hexosaminidase release, % of total) at 1 µM (human TGR12 (untagged)) | degranulation of LAD 2 (beta-hexosaminidase release, % of total) at 3 µM (human TGR12 (untagged)) | maximum activity in the calcium increasing effect (FLIPR), RBL2H3-TGR12, at 1 nM (human TGR12 (untagged)) | maximum activity in the calcium increasing effect (FLIPR), RBL2H3-TGR12, at 10 nM (human TGR12 (untagged)) | maximum activity in the calcium increasing effect (FLIPR), RBL2H3-TGR12, at 100 nM (human TGR12 (untagged)) | maximum activity in the calcium increasing effect (FLIPR), RBL2H3-TGR12, at 1 µM (human TGR12 (untagged)) | maximum activity in the calcium increasing effect (FLIPR), RBL2H3-TGR12, at 10 µM (human TGR12 (untagged)) | Binder |
| --- | --- | --- | --- | --- | --- | --- | --- | --- | --- | --- | --- | --- | --- | --- | --- | --- | --- | --- | --- |
| 47 nM | ~161 nM | 287 fluorescence intensity | 410 fluorescence intensity | 195 fluorescence intensity | 23000 fluorescence intensity | 23300 fluorescence intensity | ~51 nM | 7.4% | 24.8% | 49.4% | 65.8% | 68.9% | 63.3% | – | – | – | – | – | HSDGIFTDSYSRYRKQMAVKKYLAAVLGKRYKQRVKNK (peptide, UniProt P18509 132-169, looked up, not fully specified; ends and bridges not checked, domain: PACAP-38) [human PACAP38 (pituitary adenylate cyclase activating polypeptide 38)] |
| 264 nM | ~93 nM | 48 fluorescence intensity | 58 fluorescence intensity | 939 fluorescence intensity | 23000 fluorescence intensity | 23700 fluorescence intensity | ~51 nM | 2.6% | 19.6% | 59.4% | 71.1% | – | 69.1% | 40 fluorescence intensity | 29 fluorescence intensity | 5300 fluorescence intensity | 11500 fluorescence intensity | 12700 fluorescence intensity | HSDGIFTDSYSRYRKQMAVKKYLAAVL (peptide, UniProt P18509 132-158, looked up, not fully specified; ends and bridges not checked, domain: PACAP-27) [human PACAP27 (pituitary adenylate cyclase activating polypeptide 27)] |
